± gives the standard deviation.
Assay: protein stability index of a GFP-peptide fusion (GPS, HEK-293T) (PSI 1-6); higher = more stable
[1] = treatment: DMSO, c terminus: a fixed tail appended
[2] = treatment: MLN4924 1 uM, 8 h, c terminus: a fixed tail appended
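Further: 24-mer peptide tiles fused after GFP, lentivirally expressed, FACS-sorted into six equal bins by GFP/DsRed ratio, decoded by Illumina sequencing, PSI is the read-weighted mean bin number.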

Sequence VIDDAKQYVYIAVMDYLPISSTST [PLD5] has a protein stability index [1] of 2.54 ± 0.95 and a protein stability index [2] of 2.76 ± 0.73.
VIKENDPSGFLQISDALIRRVHLT [TRIM9] gave a protein stability index [1] of 2.07 ± 0.26 and a protein stability index [2] of 2.39 ± 0.34.
For VIRRLDETVVNRIAAGEVIQRPAN [MLH1], the protein stability index [2] was 3.92 ± 0.28.
For VKAATTEPTEVEEVVPALEPTETL [BCL2L13], the protein stability index [1] was 5.65 ± 0.16 and the protein stability index [2] was 5.67 ± 0.14.
Sequence VKELRPQLMTSQFISVFSNLLESK [ZER1] has a protein stability index [1] of 2.38 ± 0.24 and a protein stability index [2] of 2.61 ± 0.44.
VKETGYFFIYGQVLYTDKTYAMGH [TNFSF13B] showed a protein stability index [1] of 2.86 ± 1.5 and a protein stability index [2] of 2.41 ± 0.86.
Work on VKVIMDALDERAKVLHEDKQTREQ [TRIM29] yielded a protein stability index [1] of 3.84 ± 0.098 and a protein stability index [2] of 3.84 ± 0.39.
In the case of VLKDELQLYGDAPGEVVPSGESGL [TMEM40], the protein stability index [1] is reported as 5.14 ± 0.24 and the protein stability index [2] is reported as 5.26 ± 0.23.
Work on VLQERVRIFAHKIYLSTSSSKFYD [RHOBTB2] yielded a protein stability index [1] of 2.6 ± 0.54 and a protein stability index [2] of 2.33 ± 0.46.
Work on VLQMWHIVDKCTELLREGRASATT [ZBTB22] yielded a protein stability index [1] of 2.19 ± 0.29 and a protein stability index [2] of 2.25 ± 0.41.
VNHRIYYKGHIPEKLETFVSLHR [FEM1C] showed a protein stability index (treatment: DMSO, c terminus: native) of 2.24 ± 0.17 and a protein stability index (treatment: MLN4924 1 uM, 8 h, c terminus: native) of 2.305 ± 0.015.
VNPFQLQQFRADPSTASLLLCPGG [TIAF1] showed a protein stability index [1] of 2.93 ± 0.11 and a protein stability index [2] of 2.78 ± 0.14.
Sequence VNSNKVVMSGVKCSGTELSLAHCR [LOXL2] has a protein stability index [1] of 3.38 ± 1 and a protein stability index [2] of 2.95 ± 0.43.
Work on VPRPGIPPMTQAQAVSAPGILNRP [ZNF207] yielded a protein stability index [1] of 4.55 ± 0.063 and a protein stability index [2] of 4.45 ± 0.086.
For VPWSQCLQNFLLHGTKNVTNSSSL [WSB1], the protein stability index [1] was 2.19 ± 0.21 and the protein stability index [2] was 2.19 ± 0.24.
Work on VRKKRFRKTQKKVPDVKEMEKSSF [TAF7L] yielded a protein stability index [1] of 4.1 ± 0.11 and a protein stability index [2] of 4.37 ± 0.19.
For VSCLGLGTWVTFGGQITDEMAEQL [KCNAB2], the protein stability index [1] was 2.32 ± 0.27 and the protein stability index [2] was 2.51 ± 0.3.
In the case of VSGGSAGGYGGGVSCGFGGGAGSG [KRT13], the protein stability index [1] is reported as 3.47 ± 0.38 and the protein stability index [2] is reported as 3.55 ± 0.19.
For VSHPIIYRGAVYADNMEFEQCIKL [FEM1B], the protein stability index [1] was 2.5 ± 0.48 and the protein stability index [2] was 2.5 ± 0.25.
For VSQHWATWALYNLVSVYPDKYCPL [ZER1], the protein stability index [1] was 3.07 ± 0.34 and the protein stability index [2] was 2.74 ± 0.41.
Work on VTAKTAPDVLRTKPAFIGKTNLDG [PTPRD] yielded a protein stability index [1] of 3.73 ± 0.4 and a protein stability index [2] of 4.06 ± 0.35.
VTGEKEEPSRSASEADSEAGELRK [PPEF2] showed a protein stability index [1] of 5.35 ± 0.61 and a protein stability index [2] of 5.5 ± 0.29.
Sequence VTTEQLGAKMTERGSVARPTQGPE [PXN] has a protein stability index [1] of 5.35 ± 0.17 and a protein stability index [2] of 5.14 ± 0.38.
With VVIDKHPVRFFVHKRPHVDFFLEV [CTDNEP1] the protein stability index [1] was 2.22 ± 1.1 and the protein stability index [2] was 3.06 ± 0.87.
In the case of VVKRREGPAGHSKGELAPELGEEP [POLD4], the protein stability index [1] is reported as 5.46 ± 0.087 and the protein stability index [2] is reported as 5.14 ± 0.36.
With VVLPGAVSLRYSGATAASETLSGH [ADAMTS4] the protein stability index [1] was 2.95 ± 0.46 and the protein stability index [2] was 2.96 ± 0.41.
Work on VVNKYQINGLQAWLLTHLLWFANA [DHCR7] yielded a protein stability index [1] of 2.9 ± 0.28 and a protein stability index [2] of 2.75 ± 0.34.
In the case of VVQEPPGRASRFLQSISWDPEDFE [TLE6], the protein stability index [1] is reported as 4.24 ± 0.33 and the protein stability index [2] is reported as 4.65 ± 0.45.
Sequence VVVSVAGAFRKGKSFILDFMLRYL [ATL3] has a protein stability index [1] of 2.55 ± 0.3 and a protein stability index [2] of 2.68 ± 0.34.
In the case of VYDQAVSIFYDLPQGSGFCLGQLN [SMAD6], the protein stability index [1] is reported as 2.03 ± 0.24 and the protein stability index [2] is reported as 2.16 ± 0.32.
VYLANQAKNQSDEAKEAKGSGYEK [RTP4] gave a protein stability index [1] of 4.96 ± 0.52 and a protein stability index [2] of 5.08 ± 0.21.
Sequence WASTSPGTDLPLSEIPRGVRVALD [TRIM15] has a protein stability index [1] of 3.91 ± 0.29 and a protein stability index [2] of 3.87 ± 0.26.
WCLVQICEKYLPGYYSEKLEAIQL [TBC1D10A] gave a protein stability index [1] of 2.74 ± 0.48 and a protein stability index [2] of 3.57 ± 0.41.
Work on WDERGRAAAYSPSEALLYALVHDH [ANKRD9] yielded a protein stability index [1] of 3.02 ± 0.37 and a protein stability index [2] of 2.95 ± 0.27.
Work on WEQPWASEVFGPERMPPSGAARSF [PXN] yielded a protein stability index [1] of 3.73 ± 0.33 and a protein stability index [2] of 3.45 ± 0.11.
With WEWNELIPQGICPVGRSWHSLTPV [KLHDC2] the protein stability index [1] was 2.16 ± 0.27 and the protein stability index [2] was 2.27 ± 0.21.
WFPLHLSRILKKTVYNEMDKNRCE [EDNRA] gave a protein stability index [1] of 2.6 ± 0.84 and a protein stability index [2] of 1.98 ± 0.4.
With WGPLQDSLEHTLRVAIAHYQDDPD [TSPAN10] the protein stability index [1] was 3.54 ± 0.28 and the protein stability index [2] was 3.69 ± 0.22.
Sequence WKDLTLSTRPEEGCSLHEEDTQRH [TCAP] has a protein stability index [1] of 5.08 ± 0.25 and a protein stability index [2] of 5.13 ± 0.28.
In the case of WKIAPAMAAGNTVIAKPSELTSVT [ALDH8A1], the protein stability index [1] is reported as 3.12 ± 0.41 and the protein stability index [2] is reported as 3.17 ± 0.53.
For WLEDEPGRGAQGENERVRGLETGD [ZSWIM9], the protein stability index [1] was 5.49 ± 0.32 and the protein stability index [2] was 5.48 ± 0.18.
WLNKEKGIFKIEDSAQVARLWGIR [SPDEF] gave a protein stability index [1] of 2.63 ± 0.32 and a protein stability index [2] of 2.35 ± 0.17.
Sequence WSGEVKDKNVQVVELPIVDSLHPR [FUT8] has a protein stability index [1] of 4.17 ± 0.17 and a protein stability index [2] of 4.29 ± 0.15.
WTLKLDGNLQLDCLAQGWKQYQQR [RTP4] gave a protein stability index [1] of 2.2 ± 0.26 and a protein stability index [2] of 2.55 ± 0.26.
YAIKRSKKPLAGSVDEQNALREVY [WEE1] gave a protein stability index [1] of 3.3 ± 0.32 and a protein stability index [2] of 3.16 ± 0.25.

Source: the supplement of paper PMC10567573
